These are literature values, as cited in paper PMC3114466.

Where “and” joins values, the source holds several entries; their conditions need not be identical. Equal values may be shown once.

The data set concerns His. The note with it: free model compound in solution (inferred).

Take “Capped histidine model compound (acetyl-histidine-methylamide) (synthetic)”: the pKa (usually the pH at which an ionisable group is half protonated) was 6.42 and 6.92 and 6.53.
